The results in this text go back to the RNAGym collection of RNA variant scans (doi:10.1093/molbev/msab373).

First the molecules themselves.
B1: Azoarcus group I ribozyme (parent)
chain: GUGCCUUGCGCCGGGAAACCACGCAAGGGAUGGUGUCAAAUUCGGCGAAACCUAAGCGCCCGCCCGGGCGUAUGGCAACGCCGAGCCAAGCUUCGGCGCCUGCGCCGAUGAAGGUGUAGAGACUAGACGGCACCCACCUAAGGCAAACGCUAUGGUGAAGGCAUAGUCCAGGGAGUGGCGAAAGUCACACAAACCGG

In this series the parent is B1. The series is described as follows: reverse-splicing fitness (ratio to wild type); higher = more active; in vitro selection; Mg2+ level not given. Summed up: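 An in vitro group I ribozyme library with randomized positions was T7-transcribed and gel-purified. In triplicate, 10 pmol RNA in EPPS pH 7.5 was reacted with 50 pmoles of a 30-nt RNA substrate for 1 h at 37 °C across several added MgCl2 levels (1–48 mM), then stopped with EDTA. Products were reverse transcribed from a substrate-complementary primer, PCR-amplified and sequenced (HiSeq 4000). Fitness is a variant's read proportion after selection over that before, normalised to wild type.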
With C82U A111U A120G A145U C150A C169G U176C, the reverse-splicing fitness was 0.0136.

Consider C82U A111U A120G A145U C150A C169G U176A, for which the reverse-splicing fitness was 0.0132. As to C82A A111U A120U A145C C150A C169A U176C, the reverse-splicing fitness is 0.00299. Next, C82G A120U A145G C150G C169G U176C: 0.00637; C82A A111G A145C C169U U176G: 0.00571.

As for C82U A111G A120G C150U C169A U176A, the reverse-splicing fitness was 0.0143. For C82G A111C A120U A145C U176G the value was 0.00462; for C82A A111G A120G A145U C150U C169U U176A, 0.0192. Consider C82A A111G A120G C150U C169G, for which the reverse-splicing fitness was determined as 0.0108. Next, C82G A111C A120G A145G C150A U176G: 0.007; A120C A145C C150U: 0.46. Next, A111C A120U C150G C169U U176A: 0.00446; C82G A111C A120C A145U: 0.0547. As for C82A A120C A145G C150U C169G, the reverse-splicing fitness came out at 0.00896. For C82A A111U A120U A145C C150A U176G the value was 0.00255. Next, C82A A111C A120G A145U C169U U176G: 0.00449; C82A A111G A120C A145C C150A C169G U176C: 0.025. Next, C82G A111U C150G C169A U176G: 0.00732; C82U A111G A120G A145C C169G U176C: 0.0158. With C82G A111C A145C C150A U176G, the reverse-splicing fitness is 0.00879. For C82U A111C A120G A145U C150A the value was 0.00775; for A120G A145U C150A C169A U176G, 0.00487.

In the case of A111U A120U A145G C150A C169U U176A, the reverse-splicing fitness was 0.00532. Next, C82A A111G A120G A145G C150U C169G: 0.0113; C82G A120C A145U C150A C169G: 0.00739. Consider A111C A120U C169A U176C, for which the reverse-splicing fitness was 0.00293. For C82A A120C C150U C169A U176A the value was 0.0201. On to C82G A111C A120C C150U C169U, for which the reverse-splicing fitness was 0.0139.

C82A A111G A120U A145G C169U: the reverse-splicing fitness was 0.00421. Turning to A120C A145U C150A U176G, the reverse-splicing fitness is 0.0668. Next, C82U A111C A120C C150U C169U U176G: 0.00584; C82A A111U A120G C150G C169G U176G: 0.00446; C82G A111G C150U C169G: 0.00932.

Take C82G A111U A120G A145C C169G U176G: the reverse-splicing fitness was 0.00404. Regarding C82U A111C A145G C150U, the reverse-splicing fitness turned out to be 0.183.

As to A111U A120U A145U C150G U176A, the reverse-splicing fitness is 0.0111.

In the case of C82A A111U A145U U176G, the reverse-splicing fitness was determined as 0.0281. For C82A A111G C150G C169G U176G the value was 0.00592. As for C82G A111G A120G C150G C169U U176G, the reverse-splicing fitness is 0.00715. Next, A111C A120C A145U C150A U176A: 0.0359.

For C82A A111U A120C C150G C169A U176C, the reverse-splicing fitness is 0.0122. For C82U A111U A120G A145C C169U the value was 0.00777. As for C82U A120C A145U C150A C169A U176A, the reverse-splicing fitness turned out to be 0.0094. Next, C82G A111U A120U A145G C150U U176A: 0.0103. C82U A111C C150U C169A U176G: the reverse-splicing fitness was 0.008.

C82G A111C A120U C150A C169A U176A: the reverse-splicing fitness came out at 0.00668. Next, A145U C150U C169U U176A: 0.0998; A111G A120C A145C U176C: 0.419. Take A111C C150G C169G U176G: the reverse-splicing fitness was determined as 0.00532. For C82A A120C C150A C169U U176A the value was 0.0176. For C82A A111U A120U A145U C150A C169G the value was 0.00274; for C82U A120C A145G C169G, 0.00711. Next, C82G A111G A145G C169A U176A: 0.0158; C82U A111C U176G: 0.02. For A111U C150G U176G, the reverse-splicing fitness is 0.0165. For C82G A111C A120U A145C C150U C169U U176C the value was 0.00256; for C82G A111C A120U A145G C150A C169G, 0.0054. For C82U A111G A120G A145U C150U C169G U176G the value was 0.00409. On to C82A A111C C150A C169U U176G, for which the reverse-splicing fitness turned out to be 0.0104.

Regarding A111U A145C C150G C169A, the reverse-splicing fitness was found to be 0.00988. With A111U A145C C150G C169G, the reverse-splicing fitness came out at 0.0108. Next, C82A A111G A120G A145U C150U C169A U176G: 0.00488.

For C82U A111U A120C A145G C150A C169U, the reverse-splicing fitness is 0.0104.

Turning to A111C A120C A145G C169U U176C, the reverse-splicing fitness worked out at 0.0425. Next, C82U A120U C150G C169U U176G: 0.00244; A145C U176G: 0.411.

With C82G A111G A120C C169U U176A, the reverse-splicing fitness worked out at 0.0138. For C82U A111U A120U C150A C169A U176C the value was 0.00306. Consider C82U A111U A120G A145C C169G U176C, for which the reverse-splicing fitness turned out to be 0.0149. Consider C82A A111U A120C A145C C150G C169G U176C, for which the reverse-splicing fitness came out at 0.00882. For C82G A111G A145G C169U U176A the value was 0.0132; for A145C C169U U176C, 0.156. Next, C82U A111C A120C A145C C150U U176C: 0.0102; C82A A111C A120U C150A C169U: 0.00635. For A111U A145G C150A C169A U176A the value was 0.0172; for C82A A111C A120U A145C C150U U176G, 0.0028. In the case of C82U A111C A120C C150G C169U U176A, the reverse-splicing fitness was 0.00808. Next, C82U A111G A120G A145G C169U: 0.011. Next, C82A A111U A120C C169G U176C: 0.0298; C82U A111G A145U C150A U176A: 0.0234. As for A111C A120C A145C C169G, the reverse-splicing fitness stood at 0.0105.

Consider C82A A111G A120G A145U C150G C169A, for which the reverse-splicing fitness amounted to 0.00989. Next, C82G A145U C169U U176C: 0.0136.
